Assay results taken from the supplement of paper PMC9170038.

Tested on: MS2 coat protein
Test: apparent KD of MS2 coat protein; designed switch direction (-1 OFF switch, 1 ON switch): -1; higher = weaker reporter binding
Method in brief: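 RNA switches sharing common flanks were transcribed by stalled E. coli RNA polymerase on Illumina chips. A doubling series of SNAP-549-labelled MS2 coat protein, from 0.7 or 1.5 nM to 3 µM, was applied in Tris-HCl pH 7.5 buffer with KCl, MgCl2, BSA, DTT, tRNA and Tween-20. Each step lasted 0.8–1.5 h at the bottom of the series and 10–20 min at the top. Normalised cluster fluorescence was curve-fitted, giving apparent KD as the per-design median over clusters.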

[1] = input ligand: microRNA oligo, concentration not stated
[2] = Eterna round: R95, input ligand: FMN 200 uM
[3] = Eterna round: R95, input ligand: microRNA oligo, concentration not stated
[4] = Eterna round: R95, input ligand: none

| Sequence | apparent KD of MS2 coat protein (input ligand: FMN 200 uM) [nM] | apparent KD of MS2 coat protein [1] [nM] | apparent KD of MS2 coat protein (input ligand: none) [nM] | apparent KD of MS2 coat protein [2] [nM] | apparent KD of MS2 coat protein [3] [nM] | apparent KD of MS2 coat protein [4] [nM] |
| --- | --- | --- | --- | --- | --- | --- |
| AAAAAAUAAAAAACAAGCUACAUGAGGAUCACCCAUGUUACAAAAAUAAAAUAAAAAUAAAAUAAAAGUAAAAUGGG [Sensor V2: 75 Random] (Eterna round: R96, puzzle: Sensor v2, turn-off variant) | 145 | 78.2 | 98.8 |  |  |  |
| AAAAAGAGAGGAUAUACAACAAAACAAAACAAAACAAACACACAUGAGGAUCACCCAUGUAGAAGGCUCGAAAA [Exclusion 2 #2] (puzzle: Exclusion 2) |  |  |  | 25.1 | 16.5 | 19.3 |
| AAAAAGGCAGGAUAUGCAUACACACAAAAAAAAAAACUGGGACAUGAGGAUCACCCAUGUAGAAGGGCCAAAAA [Dora Explored 8 - Jieux - Exclusion 2] (Eterna round: R96, puzzle: Exclusion 2) | 60.1 | 53.7 | 54.1 |  |  |  |
| AAAACACAUGAGGAUCACCCAUGUGAGGAUAUGUUAGUUUCGGCGAAAGCCGAAAUUAACAGAAGGCACAGAAA [JR_Exclusion1_Sub023] (puzzle: Exclusion 1) |  |  |  | 44.7 | 39.4 | 40.1 |
| AAAACCAGAGGAUAUGCGCAUAGAUCAGACUUUGUUUCUGAACAUGAGGAUCACCCAUGUAGAAGGCUGUAAAA [Ex2 #82] (Eterna round: R97, puzzle: Exclusion 2) | 27.3 |  | 20.5 |  |  |  |
| AAAACUAACACGAAAGUGUUAGUAAAAUAAGCUUGUGGUACAUGAGGAUCACCCAUGUCCUCAUAAGCUCGUCUUAU [Mat - Sensor v3 - Turn-off var 2 - D44] (puzzle: Sensor v3, turn-off variant 2) |  |  |  | 25.1 | 67.7 | 24.5 |
| AAAAGGCUAGGAUAUACAUGAGGAUCACCCAUGUGUACUGGACAUGCGGUAUGCGUAUGUAGAAGGAGUAUAAA [Inaisor] (puzzle: Exclusion 3) |  |  |  |  | 14.2 |  |
| AAAAGGUGAGGAUAUUCAAGGAAAGACAUGAGGAUCACCCAUGUAAGAAAGGAAAAGGGAGGAGAAGGUGUGAAAA [salish99_ex5_r4_136] (Eterna round: R97, puzzle: Exclusion 5) | 62.1 |  | 60.2 |  |  |  |
| AAAAUAAUAAGUUUACGAACAUUUAGAAAAAGGGAUCCAACAUGAGGAUCACCCAUGUAUUAUCAGCAUAAACCCUA [JR_Sensorv2_tov2_Sub1270] (Eterna round: R96, puzzle: Sensor v2, turn-off variant 2) | 341 | 270 | 360 |  |  |  |
| AAAAUUGGUGAGGAUAUGCAGAUGCGCAAUGUCGCAGAAGGCACCACAUGAGGAUCACCCAUGUGUCCUCUAAA [EX6 A.19] (Eterna round: R97, puzzle: Exclusion 6) | 34 |  | 19.8 |  |  |  |
| AAACAAUCCCGAGGAUAUCGGCUAUUAGCAUGCCGAGAAGGCGGCGCGCAUCGACAUGAGGAUCACCCAUGUGUCCGCUCGGUU [Eternabot solution 31] (Eterna round: R96, puzzle: Exclusion NG 1) | 20.8 | 13.6 | 21.6 |  |  |  |
| AAACCCUCCGUAAGGAUAUGCGCAGGUAAACCGCUGUAGAAGGUACAUGAGGAUCACCCAUGUUGGACCGUGGA [Eternabot (Original) Solution 35] (Eterna round: R97, puzzle: Brourd's mod of Exclusion 4) | 36 |  | 29 |  |  |  |
| AAACCGCAAGGAUAUUGUGGCGCUGACAUGAGGAUCACCCAUGUGGUGCUAGUCCCGCUGCGAGAAGGUGUGUAAA [Enesedrave] (puzzle: Exclusion 5) |  |  |  |  | 12.3 |  |
| AAACCUGAAGUCAGGAUAUGAAGUAUCACUGUACUUCAGAAGGGACUUGAGGAUCACCCAAGUAGCCGUGAGGC [jl-bmx4.4.67 ViennaUCT mod] (Eterna round: R97, puzzle: Brourd's mod of Exclusion 4) | 116 |  | 28.8 |  |  |  |
| AAACCUGGAGUUAGGAUAUGAAGUAUCACUGCGCUUCAGAAGGGACUUGAGGAUCACCCAAGUAAAAGUUAAAA [Teredi] (Eterna round: R97, puzzle: Brourd's mod of Exclusion 4) | 20.8 |  | 18.5 |  |  |  |
| AAACGCAGAGGAUAUACAUAUUUUCCUCAUGUGCAGCUUACACAUGAGGAUCACCCAUGUAGAAGGCUGGAAAA [EX2 A.29] (Eterna round: R97, puzzle: Exclusion 2) | 300 |  | 48.6 |  |  |  |
| AAACGCUGAGGAUAUAUAUAACAACAAAGCCUCACGUGCCAACAUGAGGAUCACCCAUGUAGAAGGCAGCCCAA [Mod R3 Insanara 12 - Jieux - Exclusion 2] (Eterna round: R97, puzzle: Exclusion 2) | 15.8 |  | 14.1 |  |  |  |
| AAACGGCAGGGAGGAUAUGCUUGCCUGGGUCGUCUUCAAACAUGAGGAUCACCCAUGUAGUCGACGCAGAAGGCCCUCAAAGCC [JL ViennaUCT Ontiis mod 4] (Eterna round: R96, puzzle: Exclusion NG 2) | 42.9 | 8.85 | 16.7 |  |  |  |
| AAACGGCAGGGAGGAUAUGCUUGCCUGGGUCGUCUUCAGACAUGAGGAUCACCCAUGUAGUCGACGCAGAAGGCCCUCAAAGCC [JL ViennaUCT Ontiis mod 5] (Eterna round: R96, puzzle: Exclusion NG 2) | 158 | 16.2 | 18.1 |  |  |  |
| AAACUGUGAGGAUAUGCACGGGCCCUCUUAAUAAAACCAAAACAUGAGGAUCACCCAUGUAGAAGGCACACAUA [EX2 A.24] (Eterna round: R97, puzzle: Exclusion 2) | 53.5 |  | 543 |  |  |  |
| AAAGAACAUGAGGAUCACCCAUGUGAGGAUAUGUGAGAAUUGUGGAGAAGAAGAGAGAACAGAAGGCACUGAGG [JR_Exclu1_Sub067] (puzzle: Exclusion 1) |  |  |  | 77 | 51.3 | 64.5 |
| AAAGAUGUAGGAUAUGUCCAUCCAGACAUGAGGAUCACCCAUGUGAGGGCCGGGUGUUGGGCAGAAGGACACCGGU [Eternabot (Original) Solution 19] (Eterna round: R97, puzzle: Exclusion 5) | 27.2 |  | 31.4 |  |  |  |
| AAAGGAUGCCUAGGAUAUUGACGAAGAAAGGAUUAAGAAGGAGGAAAUAUAUGAGGGAUCCACAUGAGGAUCACCCAUGUACAC [Beveinveor] (Eterna round: R96, puzzle: Exclusion NG 1) | 538 | 458 | 270 |  |  |  |
| AAAGUAGGAGGAUAUGGAUAUAGUAACAUGAGGAUCACCCAUGUUCUUGGUGUUCGUUACCCAGAAGGCCUGACAC [Eternabot (L1) Solution 64] (Eterna round: R97, puzzle: Exclusion 5) | 184 |  | 91 |  |  |  |
| AAAGUCGGAGGAUAUACAAUAGAUGACAAUAAAGUUGGAGUACAUGAGGAUCACCCAUGUAGAAGGCCGAGAAA [Swimmer becomes a laser gun] (puzzle: Exclusion 2) |  |  |  | 28.2 | 17.3 | 20.6 |
| AAAGUGGGCCAGAACAUGAGGAUCACCCAUGUCUGAAAUAGCAAGGAUAUUACGAGCAAAAGGAGUAAGAAGGUGCACAGUACG [Eternabot solution 41] (Eterna round: R96, puzzle: Exclusion NG 3) | 24 | 15.4 | 23.6 |  |  |  |
| AAAUAAUAGAUAAAAUAAAACAUGAGGAUCACCCAUGUGGGAUGAUGAGGGUGAAACAAGCUUUUUGCUCGUCUUAU (puzzle: Sensor v3, turn-off variant 1) |  |  |  | 386 | 919 | 439 |
| AAAUAAUAGAUAAAAUAAUACAUGAGGAUCACCCAUGUGGGAUGUUGAGGGUGAUACAGGCUUUUUGCUCGUCUUAU (puzzle: Sensor v3, turn-off variant 1) |  |  |  | 434 | 155 | 207 |
| AAAUACAAGCAAAGAUCUUACAUGAGGAUCACCCAUGUGUUCGUCUUAUAAAGUACUAUCACGAAAGUGAUAGUACA [Sensor 3, v1 - 32] (puzzle: Sensor v3, turn-off variant 1) |  |  |  | 14 | 89.7 | 15.4 |
